Molecular target: AD-Myo5 [S. cerevisiae]
Assay: yeast two-hybrid (β-galactosidase activity)
Conditions: read off a plot

| response (25 °C (no heat shock)) [mU] | response (39 °C (heat shock)) [mU] | Substance |
| --- | --- | --- |
| 0.34 | 0.45 | She4-BD, wild type mutant S18A [S. cerevisiae] / AD-Myo5 [S. cerevisiae] chain 1 S18A |
| 0.075 | 0.17 | She4-BD, wild type mutant S18E [S. cerevisiae] / AD-Myo5 [S. cerevisiae] chain 1 S18E |
| 0.79 | 1 | human BD-UNC45-SM, wild type mutant S251A [human] / AD-Myo5 [S. cerevisiae] chain 1 S251A |
| 0.29 | 0.52 | human BD-UNC45-SM, wild type mutant S251E [human] / AD-Myo5 [S. cerevisiae] chain 1 S251E |
